In paper doi:10.1101/2020.12.04.411645 (bioRxiv, 2020):

Molecular target: untagged full-length RAC1 Q61L (UniProt P63000 1-192, Q61L)
Assay: SPR

Kd: 18.3 µM
B1: MBP-tagged full-length CYRI-B (natural protein)
chain: MGNLLKVLTCTDLEQGPNFFLDFENAQPTESEKEIYNQVNVVLKDAEGILEDLQSYRGAGHEIREAIQHPADEKLQEKAWGAVVPLVGKLKKFYEFSQRLEAALRGLLGALTSTPYSPTQHLEREQALAKQFAEILHFTLRFDELKMTNPAIQNDFSYYRRTLSRMRINNVPAEGENEVNNELANRMSLFYAEATPMLKTLSDATTKFVSENKNLPIENTTDCLSTMASVCRVMLETPEYRSRFTNEETVSFCLRVMVGVIILYDHVHPVGAFAKTSKIDMKGCIKVLKDQPPNSVEGLLNALRYTTKHLNDETTSKQIRSMLQ
